What was measured:
[1] = target: adenovirus E1B-55 kDa protein (Ad5) (UniProt P03243); test: cell-based or functional assay
[2] = target: T1, adenovirus E1B-55 kDa protein (Ad5, UniProt P03243 1-496); test: cell-based or functional assay
T1 sequence: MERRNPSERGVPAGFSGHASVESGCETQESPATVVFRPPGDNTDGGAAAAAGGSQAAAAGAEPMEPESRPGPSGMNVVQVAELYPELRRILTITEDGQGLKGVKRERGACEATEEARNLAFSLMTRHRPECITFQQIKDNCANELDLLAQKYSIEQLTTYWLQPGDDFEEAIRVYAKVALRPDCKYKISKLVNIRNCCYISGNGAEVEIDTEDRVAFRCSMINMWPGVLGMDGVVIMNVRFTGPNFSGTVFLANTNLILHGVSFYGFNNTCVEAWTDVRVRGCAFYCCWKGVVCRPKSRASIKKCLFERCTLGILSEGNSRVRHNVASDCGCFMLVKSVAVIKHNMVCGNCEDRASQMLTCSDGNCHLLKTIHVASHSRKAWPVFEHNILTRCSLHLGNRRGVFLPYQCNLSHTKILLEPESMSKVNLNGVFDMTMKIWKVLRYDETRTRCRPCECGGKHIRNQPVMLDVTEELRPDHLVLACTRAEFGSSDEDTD

In the case of “E4orf6 variant R251E (from UniProt P03239 1-294)”, the cells with predominantly nuclear E1B-55 kDa protein [1] is reported as 85 % of cells.

In the case of “E4orf6 variant R240,251A (from UniProt P03239 1-294)”, the cells with the E1B-55 kDa protein retained in the nucleus [1] is reported as 70 % of cells.

For “E4orf6 variant R251A (from UniProt P03239 1-294)”, the HeLa cells in which the E1B-55 kDa protein was retained [1] was > 62 % of cells and the value for nuclear E1B-55 kDa protein retention [1] was 99%.

In the case of “E4orf6 variant R244E (from UniProt P03239 1-294)”, the cells with predominantly nuclear E1B-55 kDa protein [1] is reported as 85 % of cells and the value for nuclear E1B-55 kDa protein retention [1] is reported as 91%.

With “E4orf6 variant R240A (from UniProt P03239 1-294)” the cells with the E1B-55 kDa protein retained in the nucleus [1] was 90 % of cells.

In the case of “E4orf6 variant R240,244,251A (from UniProt P03239 1-294)”, the HeLa cells in which the E1B-55 kDa protein was retained [1] is reported as > 62 % of cells, the cells in which the E1B-55 kDa protein was relocalized to the nucleus [1] is reported as 60 % of cells and the value for nuclear E1B-55 kDa protein retention [1] is reported as 62%.

“E4orf6 variant R248,251A (from UniProt P03239 1-294)” was tested, and the HeLa cells in which the E1B-55 kDa protein was retained [1] was > 62 % of cells, the cells with the E1B-55 kDa protein retained in the nucleus [1] was 82 % of cells and the value for nuclear E1B-55 kDa protein retention [1] was 80%.

With “E4orf6 variant R240E (from UniProt P03239 1-294)” the cells with predominantly cytoplasmic E1B-55 kDa protein [1] was 46 % of cells, the cells with predominantly nuclear E1B-55 kDa protein [1] was 55 % of cells and the cells with uniform distribution of the E1B-55 kDa protein [1] was 4 % of cells.

“E4orf6 variant R248E (from UniProt P03239 1-294)” was tested, and the cells with predominantly nuclear E1B-55 kDa protein [1] was 85 % of cells.

B1: wild-type adenovirus E4orf6 protein (other)
chain: MTTSGVPFGMTLRPTRSRLSRRTPYSRDRLPPFETETRATILEDHPLLPECNTLTMHNVSYVRGLPCSVGFTLIQEWVVPWDMVLTREELVILRKCMHVCLCCANIDIMTSMMIHGYESWALHCHCSSPGSLQCIAGGQVLASWFRMVVDGAMFNQRFIWYREVVNYNMPKEVMFMSSVFMRGRHLIYLRLWYDGHVGSVVPAMSFGYSALHCGILNNIVVLCCSYCADLSEIRVRCCARRTRRLMLRAVRIIAEETTAMLYSCRTERRRQQFIRALLQHHRPILMHDYDSTPM
For B1, the “value for nuclear E1B-55 kDa protein retention” value (shortened to “value”) [2] was 100%.

B2: E4orf6 variant R241E (other)
chain: MTTSGVPFGMTLRPTRSRLSRRTPYSRDRLPPFETETRATILEDHPLLPECNTLTMHNVSYVRGLPCSVGFTLIQEWVVPWDMVLTREELVILRKCMHVCLCCANIDIMTSMMIHGYESWALHCHCSSPGSLQCIAGGQVLASWFRMVVDGAMFNQRFIWYREVVNYNMPKEVMFMSSVFMRGRHLIYLRLWYDGHVGSVVPAMSFGYSALHCGILNNIVVLCCSYCADLSEIRVRCCARETRRLMLRAVRIIAEETTAMLYSCRTERRRQQFIRALLQHHRPILMHDYDSTPM
In the case of B2, the “value” value [2] is reported as 0.8%.

B3: E4orf6 variant R241A (other)
chain: MTTSGVPFGMTLRPTRSRLSRRTPYSRDRLPPFETETRATILEDHPLLPECNTLTMHNVSYVRGLPCSVGFTLIQEWVVPWDMVLTREELVILRKCMHVCLCCANIDIMTSMMIHGYESWALHCHCSSPGSLQCIAGGQVLASWFRMVVDGAMFNQRFIWYREVVNYNMPKEVMFMSSVFMRGRHLIYLRLWYDGHVGSVVPAMSFGYSALHCGILNNIVVLCCSYCADLSEIRVRCCARATRRLMLRAVRIIAEETTAMLYSCRTERRRQQFIRALLQHHRPILMHDYDSTPM
In the case of B3, the “value” value [2] is reported as 72%.

— patent publication US6844192 (WAKE FOREST UNIVERSITY, dated 2005)
